The nature of the data set: sedimentation equilibrium AUC, self-association, 25 C.

This is an account of results in patent US20100273722.

Turning to pancreatic peptide YY (PYY), the % monomer at 30 µM stood at 94%.
